# From patent publication US20250101437, “[…] FOR […] VARIANTS OF A TARGET ANALYTE, METHODS OF MAKING AND USES […]” (McMaster University, published 2025)
# Legend:
# [1] = molecular target: SARS-CoV-2 spike S1 subunit, original Wuhan (SARS-CoV-2 (Wuhan), UniProt P0DTC2 P0DTC2:16-685); test: filter; dot blot; conditions: tags: Sino Biological 40591-V08B1, label: 5'-32P
# [2] = molecular target: T1, SARS-CoV-2 spike S1 subunit, original Wuhan (SARS-CoV-2 (Wuhan), UniProt P0DTC2 P0DTC2:16-685); test: competition; conditions: tags: Sino Biological 40591-V08B1
# [3] = molecular target: SARS-CoV-1 spike protein (SARS-CoV-1, UniProt P59594 P59594:14-1195); test: filter; conditions: label: 5'-32P
# [4] = molecular target: SARS-CoV-2 spike (WH) on pseudotyped lentivirus (SARS-CoV-2 (Wuhan-Hu-1), UniProt P0DTC2 P0DTC2:14-1273); test: filter; conditions: protein: virion; tags: pseudotyped lentivirus, BEI NR-52948 kit; chain copies: 3; label: 5'-32P; four-way junction (proposed)
# [5] = molecular target: SARS-CoV-1 spike RBD (SARS-CoV-1, UniProt P59594 P59594:306-527); test: filter; conditions: label: 5'-32P
# [6] = molecular target: MERS-CoV spike RBD (MERS-CoV, UniProt K9N5Q8 K9N5Q8:367-606); test: filter; conditions: label: 5'-32P
# [7] = molecular target: SARS-CoV-2 spike trimer, original Wuhan (WHS) (SARS-CoV-2 (Wuhan-Hu-1), UniProt P0DTC2 P0DTC2:14-1213); test: filter; […]; binding buffer ([…], Mg, Tween-20, pH 7.4); conditions: tags: full-length trimeric spike, Expi293 cells, Ni-NTA purified; chain copies: 3 (stated trimeric); label: 5'-32P
# [8] = molecular target: NL63 spike RBD (Human coronavirus NL63, UniProt Q6Q1S2 Q6Q1S2:481-616); test: filter; 50 nM protein; conditions: label: 5'-32P; four-way junction (proposed)
# Chain of NL63 spike RBD (Q6Q1S2 481-616, one chain of several): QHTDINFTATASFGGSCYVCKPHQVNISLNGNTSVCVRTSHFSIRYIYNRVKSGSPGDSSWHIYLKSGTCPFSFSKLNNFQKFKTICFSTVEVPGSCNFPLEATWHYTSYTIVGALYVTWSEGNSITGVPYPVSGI
# [9] = molecular target: alpha-thrombin (Homo sapiens, UniProt P00734;P00734 P00734:328-363,P00734:364-622); test: filter; 50 nM protein; conditions: tags: Sigma-Aldrich; label: 5'-32P; four-way junction (proposed)
# [10] = molecular target: Bovine serum albumin (Bos taurus, UniProt P02769 P02769:25-607); test: filter; 50 nM protein; conditions: tags: Sigma-Aldrich; label: 5'-32P; four-way junction (proposed)
# Chain of Bovine serum albumin (P02769 25-607, one chain of several): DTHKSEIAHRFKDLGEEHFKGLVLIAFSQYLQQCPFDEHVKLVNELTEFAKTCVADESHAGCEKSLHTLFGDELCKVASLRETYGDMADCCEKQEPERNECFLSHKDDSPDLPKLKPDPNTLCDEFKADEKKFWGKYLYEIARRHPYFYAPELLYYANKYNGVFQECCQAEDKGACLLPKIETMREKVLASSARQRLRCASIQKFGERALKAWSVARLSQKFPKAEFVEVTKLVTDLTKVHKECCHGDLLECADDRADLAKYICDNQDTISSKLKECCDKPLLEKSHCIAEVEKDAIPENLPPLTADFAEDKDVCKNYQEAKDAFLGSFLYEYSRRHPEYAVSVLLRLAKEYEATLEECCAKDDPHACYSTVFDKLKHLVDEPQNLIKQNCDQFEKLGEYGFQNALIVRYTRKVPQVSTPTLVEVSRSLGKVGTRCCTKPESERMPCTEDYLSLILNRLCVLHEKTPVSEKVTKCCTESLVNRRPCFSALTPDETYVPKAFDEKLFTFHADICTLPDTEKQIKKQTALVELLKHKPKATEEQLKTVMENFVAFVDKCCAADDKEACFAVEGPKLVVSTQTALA
# [11] = molecular target: T1, SARS-CoV-2 spike S1 subunit, original …; test: filter; dot blot; conditions: tags: Sino Biological 40591-V08B1; label: 5'-32P
# [12] = molecular target: 229E spike RBD (Human coronavirus 229E, UniProt P15423 P15423:293-435); test: filter; dot blot; very weak binding; conditions: label: 5'-32P; four-way junction (proposed)
# Chain of 229E spike RBD (P15423 293-435, one chain of several): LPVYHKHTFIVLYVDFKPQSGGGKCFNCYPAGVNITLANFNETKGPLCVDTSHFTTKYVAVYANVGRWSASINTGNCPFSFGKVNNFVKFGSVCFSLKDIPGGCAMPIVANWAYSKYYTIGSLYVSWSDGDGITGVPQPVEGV
# [13] = molecular target: OC43 spike RBD (Human coronavirus OC43, UniProt P36334 P36334:333-607); test: filter; dot blot; very weak binding; conditions: label: 5'-32P; four-way junction (proposed)
# Chain of OC43 spike RBD (P36334 333-607, one chain of several): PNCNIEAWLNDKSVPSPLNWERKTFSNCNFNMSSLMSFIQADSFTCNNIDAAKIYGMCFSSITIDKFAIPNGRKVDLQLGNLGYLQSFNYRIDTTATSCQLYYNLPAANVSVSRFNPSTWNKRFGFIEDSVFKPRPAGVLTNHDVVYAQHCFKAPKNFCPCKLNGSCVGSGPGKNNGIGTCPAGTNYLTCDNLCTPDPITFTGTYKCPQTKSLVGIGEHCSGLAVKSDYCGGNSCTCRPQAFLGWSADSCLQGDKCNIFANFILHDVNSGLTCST
binder,measurement,setting,value
MSA52-T4 (ssDNA) DNA: TTACGTCAAGGTGTCACTCCGTAGGGTTTGGCTCCGGGCCTGGCGTCGGTCGCGAAGCATCTCTTTGGCGTG,Kd,[1],6 nM
MSA52-T5 (ssDNA) DNA: ACGCCAAGGTGTCACTCCGTAGGGTTTGGCTCCGGGCCTGGCGTCGGTCGCGAAGCATCTCCTTGGCGT,Kd,[1]; four-way junction (proposed),5.5 nM
"Mutant Control (MC, shuffled MSA52) (ssDNA) DNA: TCTTTCGTGCCATCCTGCGGGTGGCTGTCCGAGGCTGGTGGCTCTGCAAGTGCCACGCTTTATCTGAGGTTCGCCGGTA",binding result,[2],no binding
MSA52 (ssDNA) DNA: TTACGTCAAGGTGTCACTCCGTAGGGTTTGGCTCCGGGCCTGGCGTCGGTCGTCTCTCGCGAAGCATCTCTTTGGCGTG,Kd,[3],> 150 nM
same,Kd,[4],0.0184 nM
same,binding result,[5],no binding
same,binding result,[6],no binding
same,Kd,[7],3.6 nM
same,binding result,[8],no binding
same,binding result,[9],no binding
same,binding result,[10],no binding
same,Kd,[11],6.6 nM
same,Kd,[12],> 200 nM
same,Kd,[13],> 200 nM
MSA52-T1 (ssDNA) DNA: TTACGTCAAGGTGTCATTGGCTCCGGGCCTGGCGTCGGTCGTCTCTCGCGAAGCATCTCTTTGGCGTG,Kd,[1],61.8 nM
MSA52-T2 (ssDNA) DNA: TTACGTCAAGGTGTCACTCCGTAGGGTTTGCTGGCGTCGGTCGTCTCTCGCGAAGCATCTCTTTGGCGTG,Kd,[1],53.4 nM
MSA52-T3 (ssDNA) DNA: TTACGTCAAGGTGTCACTCCGTAGGGTTTGGCTCCGGGCCTGGCATCTCTTTGGCGTG,Kd,[1],94.8 nM
